Measurements from US20050282740.

Biological target: GST-WW-domain of Pin1 (UniProt Q13526)
Sequence (Q13526 1-54): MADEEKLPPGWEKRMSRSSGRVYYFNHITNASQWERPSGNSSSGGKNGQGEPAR

Substance: Cdc25C synthesized in vitro and phosphorylated by Xenopus mitotic extracts
- dephosphorylation of precipitated Cdc25C by CIP: CIP failed to dephosphorylate Cdc25C
